Experimental data reported in patent US20140120091A1 (University of Washington, published 2014).
Changes are numbered by the printed parent chain. In names and notes the source's numbering stands.

T1: human CD40 ligand (CD40L, CD154) expressed on human Jurkat cells (human, UniProt P29965 1-261)
T1 construct: whole, on cells; also called CD40L on Jurkat cells; CD154 (CD40L) expressed on the surface of Jurkat cells
T1 sequence (looked up): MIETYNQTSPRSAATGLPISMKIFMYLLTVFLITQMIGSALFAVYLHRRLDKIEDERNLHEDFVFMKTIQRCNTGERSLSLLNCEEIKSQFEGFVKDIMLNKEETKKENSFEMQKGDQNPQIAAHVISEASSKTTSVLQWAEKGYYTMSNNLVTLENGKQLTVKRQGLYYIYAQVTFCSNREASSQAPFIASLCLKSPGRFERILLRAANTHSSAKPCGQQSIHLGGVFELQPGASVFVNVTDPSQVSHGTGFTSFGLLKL

T2: recombinant human CD40L (Peprotech, Catalog #310-02) (human, UniProt P29965 113-261)
T2 construct: Bought reagent; also called rCD40L; immobilized CD40L
T2 sequence (looked up): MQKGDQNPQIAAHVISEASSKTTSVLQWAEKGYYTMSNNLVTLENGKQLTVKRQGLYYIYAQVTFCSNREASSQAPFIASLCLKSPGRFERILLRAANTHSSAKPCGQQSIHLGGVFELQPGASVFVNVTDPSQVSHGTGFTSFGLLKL

B1: hCD40-4s EC-mthIgG (Fc fusion)
chain: EPPTACREKQYLINSQCCSLCQPGQKLVSDCTEFTETECLPCGESEFLDTWNRETHCHQHKYCDPNLGLRVQQKGTSETDTICTCEEGWHCTSEACESCVLHRSCSPGFGVKQIATGVSDTICEPCPVGFFSNVSSAFEKCHPWTSCETKDLVVQQAGTNKTDVVCGPDLSGGGGSGGGGSGGGGSGGGGSTGLEPKSSDKTHTSPPSPAPELLGGSSVFLFPPKPKDTLMISRTPEVTCVVVDVSHEDPEVKFNWYVDGVEVHNAKTKPREEQYNSTYRVVSVLTVLHQDWLNGKEYKCKVSNKALPASIEKTISKAKGQPREPQVYTLPPSRDELTKNQVSLTCLVKGFYPSDIAVEWESNGQPENNYKTTPPVLDSDGSFFLYSKLTVDKSRWQQGNVFSCSVMHEALHNHYTQKSLSLSPGK
notes: also called human (h)CD40-SSSH-mthIgG1; hCD40mthIgG
B2: CD40 EC-Ig fusion protein, mutant E64S K81H L121P (Fc fusion)
chain: EPPTACREKQYLINSQCCSLCQPGQKLVSDCTEFTETECLPCGSSEFLDTWNRETHCHQHHYCDPNLGLRVQQKGTSETDTICTCEEGWHCTSEACESCVPHRSCSPGFGVKQIATGVSDTICEPCPVGFFSNVSSAFEKCHPWTSCETKDLVVQQAGTNKTDVVCGP
notes: COS7 culture supernatant; not shown: human IgG Fc tail
B3: CD40 EC-Ig fusion protein, mutant E64Y K81T P85Y (Fc fusion)
chain: B2 chain with S44Y, H61T, P65Y, P101L
notes: COS7 culture supernatant; also called triple mutant E64Y K81T P85Y; not shown: human IgG Fc tail

What was measured:
[1] = target: T3, recombinant human PCSK9-his6 (AcroBiosystems, Catalog # PC9-H5223) (human, UniProt Q8NBP7 31-692); test: PCSK9 antigen binding ELISA, fusion protein immobilized, PCSK9-his6 in solution, HRP anti-his6 detection
T3 construct: Bought reagent; also called PCSK9-his6 antigen; PCSK9-his 6 antigen; not shown: his6 tag
T3 sequence (Q8NBP7 31-692 limits assumed): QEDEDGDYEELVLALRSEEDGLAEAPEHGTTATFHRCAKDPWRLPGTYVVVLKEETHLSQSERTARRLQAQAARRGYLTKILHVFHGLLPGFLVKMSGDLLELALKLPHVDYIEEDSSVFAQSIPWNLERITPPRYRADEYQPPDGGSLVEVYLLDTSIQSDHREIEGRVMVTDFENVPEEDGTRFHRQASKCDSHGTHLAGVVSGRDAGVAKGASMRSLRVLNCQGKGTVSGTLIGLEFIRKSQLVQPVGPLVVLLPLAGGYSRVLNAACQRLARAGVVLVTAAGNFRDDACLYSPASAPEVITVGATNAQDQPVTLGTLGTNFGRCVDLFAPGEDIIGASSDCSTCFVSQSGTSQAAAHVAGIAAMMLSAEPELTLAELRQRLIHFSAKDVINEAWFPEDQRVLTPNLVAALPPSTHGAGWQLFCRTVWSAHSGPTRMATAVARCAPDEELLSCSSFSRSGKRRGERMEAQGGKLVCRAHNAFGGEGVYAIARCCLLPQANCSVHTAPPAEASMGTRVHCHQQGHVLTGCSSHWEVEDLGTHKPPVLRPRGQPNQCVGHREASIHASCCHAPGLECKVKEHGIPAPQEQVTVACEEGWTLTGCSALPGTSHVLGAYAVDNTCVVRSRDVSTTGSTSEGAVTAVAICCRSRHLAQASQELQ

[2] = target: T1, human CD40 ligand (CD40L, CD154) …; test: flow cytometry, serial dilutions of purified fusion protein on Jurkat cells, AF647 goat anti-human IgG detection
[3] = target: T2, recombinant human CD40L (Peprotech, …); test: CD40L antigen binding ELISA normalised to IgG sandwich ELISA, COS supernatants
Method: Coated plates were washed twice in wash buffer: (PBS/0.05% Tween-20/0.01% Kathon), and blocked overnight at 4° C. in 200 ul/well PBS/2.5% BSA. Blocked plates were washed three times in wash buffer, and serial dilutions of each culture supernatant in (D-PBS, 0.2% BSA) added to successive wells in each plate: (20×, 40×, 80×, and 160× of each supernatant). Supernatant dilutions were incubated overnight at 4° C. Plates were washed three times in wash buffer, then incubated with HRP (horseradish peroxidase) conjugated goat anti-human IgG (Fc specific) (Catalog #109-036-008, Jackson Immunoresearch, West Grove, Pa.) at a 1:7,500 dilution in PBS for 1-2 hours at room temperature. Plates were washed 4-5 times in wash buffer, then 80 ul/well TMB Sureblue peroxidase substrate was added (Catalog #52-00-02, KPL Laboratories, Gaithersburg, Md.). Color was allowed to develop for 5-15 minutes, and reactions stopped by addition of 80 ul/well 1 N HCL. Plates were read using a Biotek SYNERGY® 2 (Biotek Instruments, Winooski, Vt.) plate reader at […], and data analyzed with Gen5 v2 software.

Row | Binder | binding result [1] | binding result [2] | binding result [3]
1 | B1 | no binding | binds | 
2 | B2 |  |  | binds
3 | B3 |  |  | binds
